Reference: publication doi:10.1101/2020.01.06.896332 (bioRxiv, 2020)
Values joined by “and” are separate entries in the source; they are usually repeats but may differ in a detail not shown here. Equal entries are not always repeated.

Target: the molecule itself
Test: SEC

B1: human diacylglycerol O-acyltransferase-1 (enzyme, UniProt O75907 1-488, looked up)
chain: MGDRGSSRRRRTGSRPSSHGGGGPAAAEEEVRDAAAGPDVGAAGDAPAPAPNKDGDAGVGSGHWELRCHRLQDSLFSSDSGFSNYRGILNWCVVMLILSNARLFLENLIKYGILVDPIQVVSLFLKDPYSWPAPCLVIAANVFAVAAFQVEKRLAVGALTEQAGLLLHVANLATILCFPAAVVLLVESITPVGSLLALMAHTILFLKLFSYRDVNSWCRRARAKAASAGKKASSAAAPHTVSYPDNLTYRDLYYFLFAPTLCYELNFPRSPRIRKRFLLRRILEMLFFTQLQVGLIQQWMVPTIQNSMKPFKDMDYSRIIERLLKLAVPNHLIWLIFFYWLFHSCLNAVAELMQFGDREFYRDWWNSESVTYFWQNWNIPVHKWCIRHFYKPMLRRGSSKWMARTGVFLASAFFHEYLVSVPLRMFRLWAFTGMMAQIPLAWFVGRFFQGNYGNAAVWLSLIIGQPIAVLMYVHDYYVLNYEAPAAEA
  stoichiometry N: 2 and 4
